Here are results for 2 molecules from publication doi:10.1101/2021.12.30.474394.

The target of one test is mutant CycT14MUT (UniProt O60563). Briefly: co-IP.
A further test addresses mutant CycT14MUT(280) (UniProt O60563). The test is described as follows: co-IP.

B1: WT Siah2 (enzyme)
chain: MSRPSSTGPSANKPCSKQPPPQPQHTPSPAAPPAAATISAAGPGSSAVPAAAAVISGPGGGGGAGPVSPQHHELTSLFECPVCFDYVLPPILQCQAGHLVCNQCRQKLSCCPTCRGALTPSIRNLAMEKVASAVLFPCKYATTGCSLTLHHTEKPEHEDICEYRPYSCPCPGASCKWQGSLEAVMSHLMHAHKSITTLQGEDIVFLATDINLPGAVDWVMMQSCFGHHFMLVLEKQEKYEGHQQFFAIVLLIGTRKQAENFAYRLELNGNRRRLTWEATPRSIHDGVAAAIMNSDCLVFDTAIAHLFADNGNLGINVTISTCCP
B1: the fold change of co-IP against WT CycT1 with mutant CycT14MUT came to 8.3 fold. Further, the fold change of co-IP against WT CycT1(280) with mutant CycT14MUT(280) stood at 8.9 fold.

B2: DN Siah1C75S (enzyme)
chain: MSRQTATALPTGTSKCPPSQRVPALTGTTASNNDLASLFECPVCFDYVLPPILQCQSGHLVCSNCRPKLTCCPTSRGPLGSIRNLAMEKVANSVLFPCKYASSGCEITLPHTEKADHEELCEFRPYSCPCPGASCKWQGSLDAVMPHLMHQHKSITTLQGEDIVFLATDINLPGAVDWVMMQSCFGFHFMLVLEKQEKYDGHQQFFAIVQLIGTRKQAENFAYRLELNGHRRRLTWEATPRSIHEGIATAIMNSDCLVFDTSIAQLFAENGNLGINVTISMC
Molecule B2 came in with a fold change of co-IP against WT CycT1 in the test with mutant CycT14MUT of 5.7 fold. In the test with mutant CycT14MUT(280), the fold change of co-IP against WT CycT1(280) amounted to 5.1 fold.
